We go through four molecules from US20250154287A1 (Pfizer, published 2025).

Experiment [1] has as its target T1, human membrane IgA (mIgA), endogenously expressed on primary B cells and DAKIKI cells (human, UniProt P01876 1-398). As to the kind of experiment: cell-based or functional assay.
Experiment [2] concerns the target T1, human membrane IgA (mIgA), endogenously …. The experiment is described as follows: cell-based or functional assay. This is another data set of the same source.
Experiment [3] has the same target. The experiment is described as follows: cell-based or functional assay. This is another data set of the same source.
The target of experiment [4] is T2, biotinylated cyno MIGIS-α peptide (cynomolgus monkey).
T2 construct: domain: MIGIS-α
The experiment is described as follows: SPR (Biacore T200, 37 C), biotinylated peptide captured, OAA as analyte, 1:1 fit. In general terms: Surface plasmon resonance follows binding to a sensor surface in real time, without labels.

For experiment [5], the target named is T3, biotinylated human MIGIS-α peptide (human, biotinylated).
T3 peptide: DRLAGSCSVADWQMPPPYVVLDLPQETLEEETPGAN
The description is as above.

Experiment [6] deals with T2, biotinylated cyno MIGIS-α peptide. As to the kind of experiment: SPR, OAA format.
The target of experiment [7] is T3, biotinylated human MIGIS-α peptide. As to the kind of experiment: SPR, OAA format.
In experiment [8] the target is T1, human membrane IgA (mIgA), endogenously …. As to the kind of experiment: cell-based or functional assay. The source holds these as a separate data set.
For experiment [9] the target is unchanged. As to the kind of experiment: cell-based or functional assay. This is another data set of the same source.

T1 sequence (P01876 whole entry): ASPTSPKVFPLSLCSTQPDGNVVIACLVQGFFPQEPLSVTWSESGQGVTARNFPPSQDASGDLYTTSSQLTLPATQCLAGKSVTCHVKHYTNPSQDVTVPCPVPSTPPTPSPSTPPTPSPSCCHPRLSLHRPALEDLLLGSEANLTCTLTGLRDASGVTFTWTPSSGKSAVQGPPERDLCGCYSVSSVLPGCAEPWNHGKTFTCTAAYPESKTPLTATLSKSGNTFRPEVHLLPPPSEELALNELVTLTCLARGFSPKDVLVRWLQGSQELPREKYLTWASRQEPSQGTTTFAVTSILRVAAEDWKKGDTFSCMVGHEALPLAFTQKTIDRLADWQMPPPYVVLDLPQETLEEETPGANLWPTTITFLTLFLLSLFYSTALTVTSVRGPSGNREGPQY

B1: GBT-IgA-0836 (T18-NKp46 bsAb) (bispecific antibody)
heavy 1: not shown
light 1: not shown
heavy 2: not shown
light 2: DIQMTQTTSSLSASLGDRVTISCRASQDISNYLNWYQQKPDGTVKLLIYYTSRLHSGVPSRFSGSGSGTDYSLTINNLEQEDIATYFCQQGNTRPWTFGGGTKLEIKRTVAAPSVFIFPPSDEQLKSGTASVVCLLNNFYPREAKVQWKVDNALQSGNSQESVTEQDSKDSTYSLSSTLTLSKADYEKHKVYACEVTHQGLSSPVTKSFNRGEC
With B1, in experiment [1], the “EC50 (nM), cytotoxicity against IgA^+ CD20^+ B cells by flow cytometry” value was 0.457 nM. In experiment [2], the “EC50 (nM), reduction in secreted IgA in human PBMC supernatants” value was found to be 980 nM. In addition, the “reduction of secreted IgA in PBMC supernatants at 300 nM (IgA ELISA)” value in experiment [3] is 15%.

B2: GBT-IgA-0752 (GBT-IgA-0862 in one armed format) (antibody)
heavy: not shown
chain: EPKSSDKTHTCPPCPAPEAAGAPSVFLFPPKPKDTLMISRTPEVTCVVVDVSHEDPEVKFNWYVDGVEVHNAKTKPREEQYNSTYRVVSVLTVLHQDWLNGKEYKCKVSNKALPAPIEKTISKAKGQPREPQVYTLPPCREEMTKNQVSLSCAVKGFYPSDIAVEWESNGQPENNYKTTPPVLDSDGSFFLVSKLTVDKSRWQQGNVFSCSVMHEALHNRYTQKSLSLSPGK
light: not shown
notes: also called one armed format of GBT-IgA-0862 and of GBT-IgA-1164
In [4], B2 gave an equilibrium dissociation constant (Kd) of 0.795 nM, a koff of 0.0017 s⁻¹ and an association rate constant (kon) of 2.22e+06 M⁻¹ s⁻¹. In [5], this molecule yielded a Kd of 0.665 nM, a dissociation rate constant (koff) of 0.0015 s⁻¹ and a kon of 2.29e+06 M⁻¹ s⁻¹. For the same molecule, in [6], the “fold affinity difference against GBT-IgA-1091” value is around 3 fold and the “fold affinity gain over T18” value is around 14 fold. For the same molecule, in experiment [7], the “fold affinity difference against GBT-IgA-1091” value is around 3 fold and the “fold affinity gain over T18” value is around 16 fold.

B3: GBT-IgA-0661 (T18-CD3 bispecific EFN EE/RR huIgG1) (bispecific antibody)
heavy 1: not shown
light 1: not shown
heavy 2: EVQLVESGGGLVQPGGSLRLSCAASGFTFSDYYMTWVRQAPGKGLEWVAFIRNQARGYTSDHNPSVKGRFTISRDNAKNSLYLQMNSLRAEDTAVYYCARDRPSYYVLDYWGQGTTVTVSSASTKGPSVFPLAPSSKSTSGGTAALGCLVKDYFPEPVTVSWNSGALTSGVHTFPAVLQSSGLYSLSSVVTVPSSSLGTQTYICNVNHKPSNTKVDKKVEPKSCEKTHTCPPCPAPEAAGAPSVFLFPPKPKDTLMISRTPEVTCVVVDVSHEDPEVKFNWYVDGVEVHNAKTKPREEQYNSTYRVVSVLTVLHQDWLNGKEYKCKVSNKALPAPIEKTISKAKGQPREPQVYTLPPSREEMTKNQVSLTCEVKGFYPSDIAVEWESNGQPENNYKTTPPVLDSDGSFFLYSKLTVDKSRWQQGNVFSCSVMHEALHNHYTQKSLSLSPGK
light 2: DIQMTQSPSSLSASVGDRVTITCTSSQSLFNVRSQKNYLAWYQQKPGKAPKLLIYWASTRESGVPSRFSGSGSGTDFTLTISSLQPEDFATYYCKQSYDLFTFGGGTKVEIKRTVAAPSVFIFPPSDEQLKSGTASVVCLLNNFYPREAKVQWKVDNALQSGNSQESVTEQDSKDSTYSLSSTLTLSKADYEKHKVYACEVTHQGLSSPVTKSFNRGEC
Turning to B3, the “EC50 (nM), cytotoxicity against IgA^+ CD20^+ B cells by flow cytometry” value in [1] stood at 2.68 nM. In addition, the “EC50 (nM), reduction in secreted IgA in human PBMC supernatants” value in experiment [2] worked out at 21.2 nM. Also, the “reduction of secreted IgA in PBMC supernatants at 300 nM (IgA ELISA)” value in [3] worked out at 52%.

B4: GBT-IgA-1164, anti-MIGIS-α/CD3 bispecific antibody (bispecific antibody)
heavy 1: not shown
light 1: not shown
heavy 2: EVQLVESGGGLVQPGGSLRLSCAASGFTFSDYYMTWVRQAPGKGLEWVAFIRNQARGYTSDHNPSVKGRFTISRDNAKNSLYLQMNSLRAEDTAVYYCARDRPSYYVLDYWGQGTTVTVSSASTKGPSVFPLAPSSKSTSGGTAALGCLVKDYFPEPVTVSWNSGALTSGVHTFPAVLQSSGLYSLSSVVTVPSSSLGTQTYICNVNHKPSNTKVDKKVEPKSCEKTHTCPPCPAPEAAGAPSVFLFPPKPKDTLMISRTPEVTCVVVDVSHEDPEVKFNWYVDGVEVHNAKTKPREEQYNSTYRVVSVLTVLHQDWLNGKEYKCKVSNKALPAPIEKTISKAKGQPREPQVYTLPPSREEMTKNQVSLTCEVKGFYPSDIAVEWESNGQPENNYKTTPPVLDSDGSFFLYSKLTVDKSRWQQGNVFSCSVMHEALHNHYTQKSLSLSPGK
light 2: DIQMTQSPSSLSASVGDRVTITCTSSQSLFNVRSQKNYLAWYQQKPGKAPKLLIYWASTRESGVPSRFSGSGSGTDFTLTISSLQPEDFATYYCKQSYDLFTFGGGTKVEIKRTVAAPSVFIFPPSDEQLKSGTASVVCLLNNFYPREAKVQWKVDNALQSGNSQESVTEQDSKDSTYSLSSTLTLSKADYEKHKVYACEVTHQGLSSPVTKSFNRGEC
As for B4, the “EC50 (nM), IgA producing B cell kill” value in [8] stood at 0.916 nM. In experiment [9], the “EC50 (nM), IgA^+ memory B cell kill” value turned out to be 0.318 nM.

In general, Kd refers to the constant that tells how readily two partners part at equilibrium. Usually koff stands for the rate constant with which the complex falls apart. The low end stands for slow dissociation, the high end for fast dissociation. What is called kon is the second-order rate constant of association. Low values mean slower complex formation, high ones faster complex formation.
